# Experimental data: patent US20150344570A1 (published 2015)
# B1: GpH7-B3 variant E269_01G/GpL16-k0 (antibody, human IgG1, kappa)
# heavy: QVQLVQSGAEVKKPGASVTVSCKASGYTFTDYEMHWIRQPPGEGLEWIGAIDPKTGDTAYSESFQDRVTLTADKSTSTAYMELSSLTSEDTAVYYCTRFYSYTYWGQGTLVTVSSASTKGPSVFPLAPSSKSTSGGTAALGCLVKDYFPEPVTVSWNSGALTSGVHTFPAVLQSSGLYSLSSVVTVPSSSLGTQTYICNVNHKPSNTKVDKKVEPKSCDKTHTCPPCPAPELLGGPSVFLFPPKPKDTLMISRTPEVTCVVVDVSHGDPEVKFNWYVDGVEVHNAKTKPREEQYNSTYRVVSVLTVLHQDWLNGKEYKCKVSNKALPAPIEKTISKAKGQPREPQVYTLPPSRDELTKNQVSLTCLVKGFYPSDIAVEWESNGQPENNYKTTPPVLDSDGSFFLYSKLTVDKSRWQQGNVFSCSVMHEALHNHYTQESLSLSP
# light: DIVMTQSPLSLPVTPGEPASISCQASESLVHSNRNTYLHWYLQKPGQSPQLLIYKVSNRFSGVPDRFSGSGSGTDFTLKISRVEAEDVGVYYCSQNTHVPPTFGQGTKVEIERTVAAPSVFIFPPSDEQLKSGTASVVCLLNNFYPREAKVQWKVDNALQSGNSQESVTEQDSKDSTYSLSSTLTLSKADYEKHKVYACEVTHQGLSSPVTKSFNRGEC
# notes: also called Ho Ab E269_01G
# B2: GpH7-B3 variant A327_07I/GpL16-k0 (antibody, human IgG1, kappa)
# heavy: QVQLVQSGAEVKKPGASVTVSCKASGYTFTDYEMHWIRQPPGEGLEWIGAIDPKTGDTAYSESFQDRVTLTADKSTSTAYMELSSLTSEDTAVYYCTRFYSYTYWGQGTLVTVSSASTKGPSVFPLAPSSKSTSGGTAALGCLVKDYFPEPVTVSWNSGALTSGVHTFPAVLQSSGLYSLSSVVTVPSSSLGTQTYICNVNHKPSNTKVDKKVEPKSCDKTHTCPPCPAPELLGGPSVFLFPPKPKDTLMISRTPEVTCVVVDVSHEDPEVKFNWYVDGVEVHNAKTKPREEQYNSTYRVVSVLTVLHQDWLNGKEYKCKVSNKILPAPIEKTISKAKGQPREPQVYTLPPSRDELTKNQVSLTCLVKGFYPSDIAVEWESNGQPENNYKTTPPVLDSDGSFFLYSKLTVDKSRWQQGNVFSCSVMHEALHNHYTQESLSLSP
# light: B1 light
# notes: also called Ho Ab A327_07I
# B3: GpH7-B3 variant A327_03V/GpL16-k0 (antibody, human IgG1, kappa)
# heavy: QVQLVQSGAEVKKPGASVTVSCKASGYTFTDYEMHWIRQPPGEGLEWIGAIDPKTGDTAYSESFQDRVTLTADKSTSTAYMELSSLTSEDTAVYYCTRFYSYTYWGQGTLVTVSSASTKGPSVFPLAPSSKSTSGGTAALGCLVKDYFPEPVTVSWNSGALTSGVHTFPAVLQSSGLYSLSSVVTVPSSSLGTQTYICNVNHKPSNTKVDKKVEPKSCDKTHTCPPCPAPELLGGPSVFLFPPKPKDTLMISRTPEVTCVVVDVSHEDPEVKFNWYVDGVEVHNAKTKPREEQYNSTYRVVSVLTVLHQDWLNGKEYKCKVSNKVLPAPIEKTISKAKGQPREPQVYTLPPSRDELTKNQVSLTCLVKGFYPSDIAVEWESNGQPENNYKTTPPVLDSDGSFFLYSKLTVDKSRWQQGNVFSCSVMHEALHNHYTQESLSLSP
# light: B1 light
# notes: also called Ho Ab A327_03V
# B4: GpH7-B3 variant A327_13S/GpL16-k0 (antibody, human IgG1, kappa)
# heavy: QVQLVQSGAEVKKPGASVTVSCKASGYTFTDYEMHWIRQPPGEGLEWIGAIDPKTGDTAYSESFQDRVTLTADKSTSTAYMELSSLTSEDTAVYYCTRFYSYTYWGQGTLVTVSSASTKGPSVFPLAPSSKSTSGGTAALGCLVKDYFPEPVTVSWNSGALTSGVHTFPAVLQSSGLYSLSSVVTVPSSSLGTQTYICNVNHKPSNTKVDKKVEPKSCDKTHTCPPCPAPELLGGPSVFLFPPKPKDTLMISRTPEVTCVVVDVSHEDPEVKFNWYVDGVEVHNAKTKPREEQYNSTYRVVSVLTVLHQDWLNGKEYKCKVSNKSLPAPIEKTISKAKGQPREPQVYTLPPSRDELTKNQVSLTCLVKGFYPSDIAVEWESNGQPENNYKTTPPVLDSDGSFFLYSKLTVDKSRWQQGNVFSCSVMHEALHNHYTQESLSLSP
# light: B1 light
# notes: also called Ho Ab A327_13S
# B5: GpH7-B3 variant A327_09D/GpL16-k0 (antibody, human IgG1, kappa)
# heavy: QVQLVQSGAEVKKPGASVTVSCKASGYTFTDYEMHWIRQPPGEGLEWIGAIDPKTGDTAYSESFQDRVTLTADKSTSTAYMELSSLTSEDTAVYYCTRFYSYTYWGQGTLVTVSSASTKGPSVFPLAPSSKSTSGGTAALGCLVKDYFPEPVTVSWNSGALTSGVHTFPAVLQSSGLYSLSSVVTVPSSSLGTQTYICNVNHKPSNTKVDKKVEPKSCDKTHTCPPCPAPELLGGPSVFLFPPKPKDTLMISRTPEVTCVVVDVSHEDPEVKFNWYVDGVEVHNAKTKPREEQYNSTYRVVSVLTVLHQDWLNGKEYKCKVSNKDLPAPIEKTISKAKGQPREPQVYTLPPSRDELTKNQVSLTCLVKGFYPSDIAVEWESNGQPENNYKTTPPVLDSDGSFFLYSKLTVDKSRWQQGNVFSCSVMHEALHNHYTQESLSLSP
# light: B1 light
# notes: also called Ho Ab A327_09D
# B6: GpH7-B3 variant A327_10E/GpL16-k0 (antibody, human IgG1, kappa)
# heavy: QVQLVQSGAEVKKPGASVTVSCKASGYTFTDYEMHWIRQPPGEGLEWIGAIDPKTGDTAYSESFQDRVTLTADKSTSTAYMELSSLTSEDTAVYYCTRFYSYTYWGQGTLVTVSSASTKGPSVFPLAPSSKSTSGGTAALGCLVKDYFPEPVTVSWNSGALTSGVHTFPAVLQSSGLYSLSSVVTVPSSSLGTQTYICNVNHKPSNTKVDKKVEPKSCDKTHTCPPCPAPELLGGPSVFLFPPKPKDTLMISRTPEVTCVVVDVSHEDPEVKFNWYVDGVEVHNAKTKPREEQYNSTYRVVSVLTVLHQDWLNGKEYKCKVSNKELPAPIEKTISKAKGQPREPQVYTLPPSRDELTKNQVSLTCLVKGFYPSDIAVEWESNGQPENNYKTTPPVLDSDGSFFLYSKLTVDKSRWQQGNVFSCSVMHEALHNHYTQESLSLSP
# light: B1 light
# notes: also called Ho Ab A327_10E
# B7: GpH7-B3 variant A327_06M/GpL16-k0 (antibody, human IgG1, kappa)
# heavy: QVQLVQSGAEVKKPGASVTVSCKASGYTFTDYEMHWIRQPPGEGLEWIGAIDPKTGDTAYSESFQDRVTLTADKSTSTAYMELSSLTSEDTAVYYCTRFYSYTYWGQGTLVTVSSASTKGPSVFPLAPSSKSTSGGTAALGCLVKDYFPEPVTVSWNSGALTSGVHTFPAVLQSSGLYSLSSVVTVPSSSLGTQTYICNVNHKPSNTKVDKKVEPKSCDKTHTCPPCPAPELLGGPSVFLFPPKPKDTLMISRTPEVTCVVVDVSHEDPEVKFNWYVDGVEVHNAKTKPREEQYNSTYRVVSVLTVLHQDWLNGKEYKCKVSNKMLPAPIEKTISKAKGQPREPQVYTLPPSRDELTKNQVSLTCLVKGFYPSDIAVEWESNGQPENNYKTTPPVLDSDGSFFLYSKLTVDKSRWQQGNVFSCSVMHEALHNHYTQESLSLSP
# light: B1 light
# notes: also called Ho Ab A327_06M
# B8: GpH7-A5/GpH7-B3 variant I336_14T/GpL16-k0 (antibody, human IgG1, kappa)
# heavy 1: not shown
# heavy 2: not shown
# light: B1 light
# notes: also called He Ab I336_14T
# B9: GpH7-A5/GpH7-B3 variant I336_18N/GpL16-k0 (antibody, human IgG1, kappa)
# heavy 1: not shown
# heavy 2: not shown
# light: B1 light
# notes: also called He Ab I336_18N
# B10: GpH7-A5/GpH7-B3 variant K334_02A/GpL16-k0 (antibody, human IgG1, kappa)
# heavy 1: not shown
# heavy 2: not shown
# light: B1 light
# notes: also called He Ab K334_02A
# B11: GpH7-A5/GpH7-B3 variant I332_19Q/GpL16-k0 (antibody, human IgG1, kappa)
# heavy 1: not shown
# heavy 2: not shown
# light: B1 light
# notes: also called He Ab I332_19Q
# B12: GpH7-A5/GpH7-B3 variant K334_04F/GpL16-k0 (antibody, human IgG1, kappa)
# heavy 1: not shown
# heavy 2: not shown
# light: B1 light
# notes: also called He Ab K334_04F
# B13: GpH7-A5/GpH7-B3 variant K326_04F/GpL16-k0 (antibody, human IgG1, kappa)
# heavy 1: not shown
# heavy 2: not shown
# light: B1 light
# notes: also called He Ab K326_04F
# B14: GpH7-A5/GpH7-B3 variant K326_03V/GpL16-k0 (antibody, human IgG1, kappa)
# heavy 1: not shown
# heavy 2: not shown
# light: B1 light
# notes: also called He Ab K326_03V
# B15: GpH7-A5/GpH7-B3 variant Q295_10E/GpL16-k0 (antibody, human IgG1, kappa)
# heavy 1: not shown
# heavy 2: not shown
# light: B1 light
# notes: also called He Ab Q295_10E
# B16: GpH7-A5/GpH7-B3 variant K334_19Q/GpL16-k0 (antibody, human IgG1, kappa)
# heavy 1: not shown
# heavy 2: not shown
# light: B1 light
# notes: also called He Ab K334_19Q
# B17: GpH7-A5/GpH7-B3 variant K326_10E/GpL16-k0 (antibody, human IgG1, kappa)
# heavy 1: not shown
# heavy 2: not shown
# light: B1 light
# notes: also called He Ab K326_10E
# B18: GpH7-A5/GpH7-B3 variant K334_03V/GpL16-k0 (antibody, human IgG1, kappa)
# heavy 1: not shown
# heavy 2: not shown
# light: B1 light
# notes: also called He Ab K334_03V
# B19: GpH7-A5/GpH7-B3 variant K334_05P/GpL16-k0 (antibody, human IgG1, kappa)
# heavy 1: not shown
# heavy 2: not shown
# light: B1 light
# notes: also called He Ab K334_05P
# B20: GpH7-A5/GpH7-B3 variant S337_18N/GpL16-k0 (antibody, human IgG1, kappa)
# heavy 1: not shown
# heavy 2: not shown
# light: B1 light
# notes: also called He Ab S337_18N
# B21: GpH7-A5/GpH7-B3 variant Q295_14T/GpL16-k0 (antibody, human IgG1, kappa)
# heavy 1: not shown
# heavy 2: not shown
# light: B1 light
# notes: also called He Ab Q295_14T
# B22: GpH7-A5/GpH7-B3 variant K334_14T/GpL16-k0 (antibody, human IgG1, kappa)
# heavy 1: not shown
# heavy 2: not shown
# light: B1 light
# notes: also called He Ab K334_14T
# B23: GpH7-A5/GpH7-B3 variant K326_07I/GpL16-k0 (antibody, human IgG1, kappa)
# heavy 1: not shown
# heavy 2: not shown
# light: B1 light
# notes: also called He Ab K326_07I
# B24: GpH7-A5/GpH7-B3 variant K326_06M/GpL16-k0 (antibody, human IgG1, kappa)
# heavy 1: not shown
# heavy 2: not shown
# light: B1 light
# notes: also called He Ab K326_06M
# B25: GpH7-A5/GpH7-B3 variant I336_13S/GpL16-k0 (antibody, human IgG1, kappa)
# heavy 1: not shown
# heavy 2: not shown
# light: B1 light
# notes: also called He Ab I336_13S
# B26: GpH7-A5/GpH7-B3 variant K326_08L/GpL16-k0 (antibody, human IgG1, kappa)
# heavy 1: not shown
# heavy 2: not shown
# light: B1 light
# notes: also called He Ab K326_08L
# B27: GpH7-A5/GpH7-B3 variant K326_15Y/GpL16-k0 (antibody, human IgG1, kappa)
# heavy 1: not shown
# heavy 2: not shown
# light: B1 light
# notes: also called He Ab K326_15Y
# Target: T1, FcγRIa (human, UniProt P12314 16-292)
# T1 construct: extracellular domain; also called FcgRI; 1a
# Assay: SPR (Biacore); Ho Ab relative to HoCon Ab = 100
# Experimental: Analysis of interaction between objective antibody and the FcγR was carried out using Biacore T100 (GE Healthcare). HBS-EP+ (GE Healthcare) was used as the running buffer, and the measurement temperature was set to 25° C. Chips produced by immobilizing the antigen peptide by the amine coupling method to a Series S Sencor Chip CM5 (GE Healthcare), or alternatively, chips produced by allowing preliminarily biotinylated antigen peptides to interact with and immobilize onto a Series S Sensor Chip SA (certified) (GE Healthcare) were used. Antibodies of interest were captured onto an antigen peptide-immobilized chip, and allowed to interact to each FcγR diluted with running buffer. To regenerate and repeatedly use the chip, the antibodies captured on the chip were washed off by reacting 10 mM glycine-HCl, pH 1.5.
# T1 sequence (P12314 16-292): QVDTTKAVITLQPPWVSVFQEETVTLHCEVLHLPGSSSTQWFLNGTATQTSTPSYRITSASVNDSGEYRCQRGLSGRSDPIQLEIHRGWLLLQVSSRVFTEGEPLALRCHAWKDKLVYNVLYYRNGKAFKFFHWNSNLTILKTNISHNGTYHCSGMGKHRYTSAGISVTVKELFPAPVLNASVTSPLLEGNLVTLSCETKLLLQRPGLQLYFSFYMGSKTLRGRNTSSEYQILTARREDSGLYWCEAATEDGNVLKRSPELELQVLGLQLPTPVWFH
row,Ho/Con_1a,Binder
1,97.4 % of control,B1
2,95.5 % of control,B2
3,94.4 % of control,B3
4,86.1 % of control,B4
5,102 % of control,B5
6,98.8 % of control,B6
7,93.1 % of control,B7

# Target: T2, FcγRIIIa extracellular domain with C-terminal His tag (human, UniProt P08637 17-208)
# T2 construct: extracellular domain; also called FcgRIIIa; 3a; not shown: His tag attached to the C terminus
# Assay: SPR Biacore, captured antibody, FcγR analyte, relative binding
# Outline: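 FcγR flowed over antibodies bound to immobilized antigen peptide (CM5 or SA chip), 25° C, HBS-EP+.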
# T2 sequence (P08637 17-208): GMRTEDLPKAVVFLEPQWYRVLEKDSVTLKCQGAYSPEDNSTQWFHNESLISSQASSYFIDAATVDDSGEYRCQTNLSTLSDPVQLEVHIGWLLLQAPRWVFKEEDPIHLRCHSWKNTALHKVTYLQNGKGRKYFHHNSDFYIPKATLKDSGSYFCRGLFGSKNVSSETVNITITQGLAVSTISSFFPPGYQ
row,He/Con_3a,Binder
1,108 % of HeCon Ab GpH7-A5/GpH7-B3/GpL16-k0 (=100),B8
2,104 % of HeCon Ab GpH7-A5/GpH7-B3/GpL16-k0 (=100),B9
3,147 % of HeCon Ab GpH7-A5/GpH7-B3/GpL16-k0 (=100),B10
4,110 % of HeCon Ab GpH7-A5/GpH7-B3/GpL16-k0 (=100),B11
5,148 % of HeCon Ab GpH7-A5/GpH7-B3/GpL16-k0 (=100),B12
6,103 % of HeCon Ab GpH7-A5/GpH7-B3/GpL16-k0 (=100),B13
7,122 % of HeCon Ab GpH7-A5/GpH7-B3/GpL16-k0 (=100),B14
8,100 % of HeCon Ab GpH7-A5/GpH7-B3/GpL16-k0 (=100),B15
9,136 % of HeCon Ab GpH7-A5/GpH7-B3/GpL16-k0 (=100),B16
10,124 % of HeCon Ab GpH7-A5/GpH7-B3/GpL16-k0 (=100),B17
11,150 % of HeCon Ab GpH7-A5/GpH7-B3/GpL16-k0 (=100),B18
12,134 % of HeCon Ab GpH7-A5/GpH7-B3/GpL16-k0 (=100),B19
13,104 % of HeCon Ab GpH7-A5/GpH7-B3/GpL16-k0 (=100),B20
14,115 % of HeCon Ab GpH7-A5/GpH7-B3/GpL16-k0 (=100),B21
15,141 % of HeCon Ab GpH7-A5/GpH7-B3/GpL16-k0 (=100),B22
16,139 % of HeCon Ab GpH7-A5/GpH7-B3/GpL16-k0 (=100),B23
17,115 % of HeCon Ab GpH7-A5/GpH7-B3/GpL16-k0 (=100),B24
18,102 % of HeCon Ab GpH7-A5/GpH7-B3/GpL16-k0 (=100),B25
19,114 % of HeCon Ab GpH7-A5/GpH7-B3/GpL16-k0 (=100),B26
20,112 % of HeCon Ab GpH7-A5/GpH7-B3/GpL16-k0 (=100),B27
